Where two headings read alike, the source gives them in different places.

The test system of test [1] is B55α interactors. Briefly: MS analysis of B55α WT, V228A, I284A, S287A and D340A immunopurifications. It counts as binding, human. Conditions: log2 ratio of interactor abundance, 4 replicates each, normalised to bait B55α; for log2_ratio_D340_WT: B55α D340A vs WT immunopurification; for log2_ratio I284_WT: B55α I284A vs WT immunopurification; for log2_ratio S287_WT: B55α S287A vs WT immunopurification; for log2_ratio V228_WT: B55α V228A vs WT immunopurification. Here is the method: (§1) Standard cloning techniques were used throughout. Point mutations were introduced by whole plasmid polymerase chain reaction (PCR). All constructs were fully sequenced. Synthetic DNA was purchased from GeneArt, Life Technologies and cloned into pcDNA5/FRT/TO (Invitrogen) expression vector containing YFP, resulting in the indicated YFP fusion proteins. These constructs were transiently transfected into HeLa cells 24 hours before harvesting cells. Cells were lysed in lysis buffer [50 mM tris-HCl (pH 7.5), 50 mM NaCl, 1 mM EDTA, 1 mM […], and 0.1% NP-40]. Complexes were immunoprecipitated at 4°C in lysis buffer with green fluorescent protein (GFP)–Trap (ChromoTek) and washed in lysis buffer. Precipitated protein complexes were washed three times in lysis buffer, eluted in 2× SDS sample buffer, and subjected to Western blotting or MS as indicated.
Pull-downs were analyzed on a Q-Exactive Plus quadrupole or Fusion Orbitrap Lumos mass spectrometer (Thermo Fisher Scientific) equipped with Easy-nLC 1000 or […] (Thermo Fisher Scientific) and nanospray source (Thermo Fisher Scientific).
Static modifications included carbamidomethylcysteine, and variable modifications included oxidized methionine and STY phosphorylation. Searches were filtered using orthogonal measures including mass measurement accuracy (±3 parts per million), Xcorr for charges from +2 to +4, and dCn targeting a <1% false discovery rate at the peptide level. Quantification of LC-MS/MS spectra was performed using MassChroQ ([57]) and the iBAQ method ([58]). All data were analyzed using R 4.3.0. Missing values were imputed from a normal distribution. […] In each dataset, the abundance of the protein of interest was normalized to be equal across all samples. Statistical analyses were done using a two-tailed Student’s t test.

For test [2], the system named is PP2A-B55 isoforms. The test is classed as binding, human. Conditions: MS, n = 4; for log2_ratio WT_M: YFP-PME1 wild-type versus mutant IP; for log2_ratio WT_C: wild-type versus control IP. The procedure: as §1
Pull-downs were analyzed on a Q-Exactive Plus quadrupole or Fusion Orbitrap Lumos mass spectrometer (Thermo Fisher Scientific) equipped with Easy-nLC 1000 or […] (Thermo Fisher Scientific) and nanospray source (Thermo Fisher Scientific). Peptides were resuspended in 5% methanol/1% formic acid and loaded onto a trap column [1 cm in length, 100 μm in inner diameter, ReproSil, C18 AQ 5-μm 120-Å pore (Dr. Maisch, Ammerbuch, Germany)] vented to waste via a micro-tee and eluted across a fritless analytical resolving column (35 cm in length, 100 μm in inner diameter, ReproSil, C18 AQ 3-μm 120-Å pore) pulled in-house (Sutter P-2000, Sutter Instruments, San Francisco, CA) with a 45-min gradient of 5 to 30% liquid chromatography–MS (LC-MS) buffer B (LC-MS buffer A: 0.0625% formic acid and 3% acetonitrile (ACN); LC-MS buffer B: 0.0625% formic acid, 95% ACN Q-Exactive Plus quadrupole or 0.0625% formic acid and 80% ACN Fusion Orbitrap Lumos mass).
Static modifications included carbamidomethylcysteine, and variable modifications included oxidized methionine and STY phosphorylation. Searches were filtered using orthogonal measures including mass measurement accuracy (±3 parts per million), Xcorr for charges from +2 to +4, and dCn targeting a <1% false discovery rate at the peptide level. Quantification of LC-MS/MS spectra was performed using MassChroQ ([57]) and the iBAQ method ([58]). All data were analyzed using R 4.3.0. Missing values were imputed from a normal distribution. To be included in further analysis, proteins had to be identified with more than 1 total peptide and quantified in two or more replicates of each sample. In each dataset, the abundance of the protein of interest was normalized to be equal across all samples. Statistical analyses were done using a two-tailed Student’s t test.

Where [3] appears, read: prey 2ABA_HUMAN (PPP2R2A, B55 alpha).
Setting [4] is: prey 2ABB_HUMAN (PPP2R2B, B55 beta).
The mark [5] stands for this setting: prey 2ABD_HUMAN (PPP2R2D, B55 delta).
The mark [6] stands for this setting: prey 2ABG_HUMAN (PPP2R2C, B55 gamma).

B1: PDE8B_HUMAN (protein, UniProt O95263 1-885, looked up)
High affinity cAMP-specific …: MGCAPSIHVSQSGVIYCRDSDESSSPRQTTSVSQGPAAPLPGLFVQTDAADAIPPSRASGPPSVARVRRARTELGSGSSAGSAAPAATTSRGRRRHCCSSAEAETQTCYTSVKQVSSAEVRIGPMRLTQDPIQVLLIFAKEDSQSDGFWWACDRAGYRCNIARTPESALECFLDKHHEIIVIDHRQTQNFDAEAVCRSIRATNPSEHTVILAVVSRVSDDHEEASVLPLLHAGFNRRFMENSSIIACYNELIQIEHGEVRSQFKLRACNSVFTALDHCHEAIEITSDDHVIQYVNPAFERMMGYHKGELLGKELADLPKSDKNRADLLDTINTCIKKGKEWQGVYYARRKSGDSIQQHVKITPVIGQGGKIRHFVSLKKLCCTTDNNKQIHKIHRDSGDNSQTEPHSFRYKNRRKESIDVKSISSRGSDAPSLQNRRYPSMARIHSMTIEAPITKVINIINAAQENSPVTVAEALDRVLEILRTTELYSPQLGTKDEDPHTSDLVGGLMTDGLRRLSGNEYVFTKNVHQSHSHLAMPITINDVPPCISQLLDNEESWDFNIFELEAITHKRPLVYLGLKVFSRFGVCEFLNCSETTLRAWFQVIEANYHSSNAYHNSTHAADVLHATAFFLGKERVKGSLDQLDEVAALIAATVHDVDHPGRTNSFLCNAGSELAVLYNDTAVLESHHTALAFQLTVKDTKCNIFKNIDRNHYRTLRQAIIDMVLATEMTKHFEHVNKFVNSINKPMAAEIEGSDCECNPAGKNFPENQILIKRMMIKCADVANPCRPLDLCIEWAGRISEEYFAQTDEEKRQGLPVVMPVFDRNTCSIPKSQISFIDYFITDMFDAWDAFAHLPALMQHLADNYKHWKTLDDLKCKSLRLPSDS
For B1, in test [1], the log2_ratio_D340_WT amounted to 3.81, the “log2_ratio I284_WT” value is reported as 0.83, the “log2_ratio S287_WT” value stood at 4.46 and the “log2_ratio V228_WT” value turned out to be 5.00.

B2: OFD1_HUMAN (protein, UniProt O75665 1-1012, looked up)
Centriole and centriolar …: MMAQSNMFTVADVLSQDELRKKLYQTFKDRGILDTLKTQLRNQLIHELMHPVLSGELQPRSISVEGSSLLIGASNSLVADHLQRCGYEYSLSVFFPESGLAKEKVFTMQDLLQLIKINPTSSLYKSLVSGSDKENQKGFLMHFLKELAEYHQAKESCNMETQTSSTFNRDSLAEKLQLIDDQFADAYPQRIKFESLEIKLNEYKREIEEQLRAEMCQKLKFFKDTEIAKIKMEAKKKYEKELTMFQNDFEKACQAKSEALVLREKSTLERIHKHQEIETKEIYAQRQLLLKDMDLLRGREAELKQRVEAFELNQKLQEEKHKSITEALRRQEQNIKSFEETYDRKLKNELLKYQLELKDDYIIRTNRLIEDERKNKEKAVHLQEELIAINSKKEELNQSVNRVKELELELESVKAQSLAITKQNHMLNEKVKEMSDYSLLKEEKLELLAQNKLLKQQLEESRNENLRLLNRLAQPAPELAVFQKELRKAEKAIVVEHEEFESCRQALHKQLQDEIEHSAQLKAQILGYKASVKSLTTQVADLKLQLKQTQTALENEVYCNPKQSVIDRSVNGLINGNVVPCNGEISGDFLNNPFKQENVLARMVASRITNYPTAWVEGSSPDSDLEFVANTKARVKELQQEAERLEKAFRSYHRRVIKNSAKSPLAAKSPPSLHLLEAFKNITSSSPERHIFGEDRVVSEQPQVGTLEERNDVVEALTGSAASRLRGGTSSRRLSSTPLPKAKRSLESEMYLEGLGRSHIASPSPCPDRMPLPSPTESRHSLSIPPVSSPPEQKVGLYRRQTELQDKSEFSDVDKLAFKDNEEFESSFESAGNMPRQLEMGGLSPAGDMSHVDAAAAAVPLSYQHPSVDQKQIEEQKEEEKIREQQVKERRQREERRQSNLQEVLERERRELEKLYQERKMIEESLKIKIKKELEMENELEMSNQEIKDKSAHSENPLEKYMKIIQQEQDQESADKSSKKMVQEGSLVDTLQSSDKVESLTGFSHEELDDSW
Consider B2, for which, in test [1], the log2_ratio_D340_WT turned out to be 2.04, the “log2_ratio I284_WT” value came out at 1.52, the “log2_ratio S287_WT” value amounted to 0.73 and the “log2_ratio V228_WT” value is listed as -2.22.

B3: BAG2_HUMAN (protein, UniProt O95816 2-211, looked up)
BAG family molecular …: AQAKINAKANEGRFCRSSSMADRSSRLLESLDQLELRVEALREAATAVEQEKEILLEMIHSIQNSQDMRQISDGEREELNLTANRLMGRTLTVEVSVETIRNPQQQESLKHATRIIDEVVNKFLDDLGNAKSHLMSLYSACSSEVPHGPVDQKFQSIVIGCALEDQKKIKRRLETLLRNIENSDKAIKLLEHSKGAGSKTLQQNAESRFN
On to B3, for which, in test [1], the log2_ratio_D340_WT is recorded as -0.69, the “log2_ratio I284_WT” value is listed as -0.54, the “log2_ratio S287_WT” value is reported as 0.19 and the “log2_ratio V228_WT” value is -0.43.

B4: PME1 wt (protein, UniProt Q9Y570 2-386, looked up)
Protein phosphatase …: SALEKSMHLGRLPSRPPLPGSGGSQSGAKMRMGPGRKRDFSPVPWSQYFESMEDVEVENETGKDTFRVYKSGSEGPVLLLLHGGGHSALSWAVFTAAIISRVQCRIVALDLRSHGETKVKNPEDLSAETMAKDVGNVVEAMYGDLPPPIMLIGHSMGGAIAVHTASSNLVPSLLGLCMIDVVEGTAMDALNSMQNFLRGRPKTFKSLENAIEWSVKSGQIRNLESARVSMVGQVKQCEGITSPEGSKSIVEGIIEEEEEDEEGSESISKRKKEDDMETKKDHPYTWRIELAKTEKYWDGWFRGLSNLFLSCPIPKLLLLAGVDRLDKDLTIGQMQGKFQMQVLPQCGHAVHEDAPDKVAEAVATFLIRHRFAEPIGGFQCVFPGC
Regarding B4, the “log2_ratio WT_M” value came out at 1.05 in test [2] (prey 2AAA_HUMAN (PPP2R1A)); 1.40 in test [2] (prey 2AAB_HUMAN (PPP2R1B)); 8.62 in test [2] (setting [3]); 4.68 in test [2] (setting [4]); 5.74 in test [2] (setting [5]); 6.08 in test [2] (setting [6]). Further, the “log2_ratio WT_M” value amounted to 0.66 in test [2] (prey PP2AA_HUMAN (PPP2CA)) and 0.69 in test [2] (prey PP2AB_HUMAN (PPP2CB)). Besides, the “log2_ratio WT_C” value is given as 8.03 in test [2] (prey 2AAA_HUMAN (PPP2R1A)); 6.19 in test [2] (prey 2AAB_HUMAN (PPP2R1B)); 8.40 in test [2] (setting [3]); 4.02 in test [2] (setting [4]); 6.24 in test [2] (setting [5]); 5.83 in test [2] (setting [6]). In addition, the “log2_ratio WT_C” value was found to be 9.04 in test [2] (prey PP2AA_HUMAN (PPP2CA)) and 8.00 in test [2] (prey PP2AB_HUMAN (PPP2CB)).

Source of the values: paper PMC11446282.
